{
  "source": "patent US20200317776A1",
  "about": "(published 2020)",
  "key": {"[1]": {"target": "T1, human TREM2 Fc fusion (entire TREM2 ECD; only one Fc arm fused to TREM2) (human, UniProt Q9NZC2 19-174)", "T1 construct": "also called huTREM2-Fc; recombinant hTREM2", "T1 sequence": "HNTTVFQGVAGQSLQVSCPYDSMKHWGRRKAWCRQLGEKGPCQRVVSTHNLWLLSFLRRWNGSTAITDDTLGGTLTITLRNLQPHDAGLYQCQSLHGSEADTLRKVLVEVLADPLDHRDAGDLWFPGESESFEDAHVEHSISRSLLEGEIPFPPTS", "assay": "BLI, Fab, monovalent", "protocol": "Briefly, IgG's were loaded on-line onto AHQ sensors. Sensors were equilibrated off-line in assay buffer for 30 minutes and then monitored on-line for 60 seconds for baseline establishment. For avid binding measurement, sensors with loaded IgGs were exposed to 100 nM antigen (human TREM2 Fc fusion using the entire TREM2 ECD; only one Fc arm was fused to TREM2) for 3 minutes, afterwards they were transferred to assay buffer for 3 minutes for off-rate measurement. Monovalent binding measurements were obtained by loading human TREM2 Fe fusion antigens to AHQ sensor and followed by exposure to 100 nM TREM2 antibody Fab. Kinetics data were fit using a 1:1 binding model in the data analysis software provided by ForteBio. Assay was run at room temperature (25° C.)."}, "[2]": {"target": "human TREM2/DAP12 fusion protein (human, UniProt O43914 41-113, limits assumed)", "sequence (O43914 other isoform, or with tags, fused parts or gaps limits assumed)": "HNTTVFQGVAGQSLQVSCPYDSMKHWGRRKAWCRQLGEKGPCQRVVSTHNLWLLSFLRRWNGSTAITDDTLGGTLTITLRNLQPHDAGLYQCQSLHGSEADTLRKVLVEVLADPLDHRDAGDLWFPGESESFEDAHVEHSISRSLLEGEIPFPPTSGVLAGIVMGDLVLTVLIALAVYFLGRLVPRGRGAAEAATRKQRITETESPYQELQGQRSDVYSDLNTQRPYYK", "assay": "cell-based or functional assay"}, "[3]": {"target": "T2, human TREM2 expressed on cells (human, UniProt Q9NZC2 19-230)", "T2 construct": "BW5147.G.1.4 cells stably expressing human TREM2 together with Dap12, or endogenous TREM2 of primary human myeloid cells; also called huT2 BW; hTREM2 expressing cell line", "T2 sequence": "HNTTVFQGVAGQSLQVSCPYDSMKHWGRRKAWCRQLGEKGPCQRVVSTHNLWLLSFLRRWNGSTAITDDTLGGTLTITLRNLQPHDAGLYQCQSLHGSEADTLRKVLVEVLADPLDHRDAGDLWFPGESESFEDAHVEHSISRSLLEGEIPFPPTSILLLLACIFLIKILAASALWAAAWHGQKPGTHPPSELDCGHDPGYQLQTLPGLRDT", "assay": "FACS, hTREM2 BW cells", "protocol": "To examine cell binding of anti-TREM2 antibodies, recombinant, human TREM2-expressing BW5147.G.1.4 cells (ATCC® TIB48™) were established by stably expressing either mouse TREM2 or human TREM2 together with Dap12 using viral infection. Cells were harvested by scraping, washed in PBS, counted and plated on 96-well U bottom plates at 1)(10⁵ cells/well. The plates were spun at 1,400 rpm for 3 minutes and primary anti-TREM2 or control antibodies were added in FACS buffer (PBS H2% FBS) and incubated on ice for one hour. Cells were subsequently centrifuged as before and washed thrice with FACS buffer. Cells were then incubated with anti-human PE conjugated secondary antibody (BD Biosciences) in FACS buffer for 30 minutes on ice. Cells were again washed thrice with FACS buffer and analyzed on a BD FACS Canto. Binding was measured as mean fluorescence intensity in the APC channel."}},
  "data": [
    {"binder": "AL2p-h21 (antibody, human IgG1, V domains shown, humanized, human IgG1; Fab and IgG formats under one id) VH: QVQLVQSGAEVKKPGASVKVSCKASGYAFSSSWMNWVRQAPGQGLEWMGRIYPGDGDTNYAQKFQGRVTMTRDTSTSTVYMELSSLRSEDTAVYYCARLLRNQPGESYAMDYWGQGTLVTVSS VL: DVVMTQTPLSLSVTPGQPASISCRSSQSLVHSNGYTYLHWYLQKPGQSPQLLIYKVSNRFSGVPDRFSGSGSGTDFTLKISRVEAEDLGVYFCSQSTRVPYTFGQGTKLEIK", "values": [
      {"measurement": "Kd", "setting": "[1]", "value": 137, "unit": "nM"},
      {"measurement": "Soluble luciferase activation at 10 µg/ml Fold over control", "setting": "[2]", "value": 6.28, "unit": "fold over control"},
      {"measurement": "cell binding (FOB)", "setting": "[3]", "value": 76, "unit": "FOB"}
    ]},
    {"binder": "AL2p-h22 (antibody, human IgG1, V domains shown, humanized, human IgG1; Fab and IgG formats under one id) VH: QVQLVQSGAEVKKPGASVKVSCKASGYAFSSSWMNWVRQAPGQGLEWIGRIYPGDGDTNYAQKFQGRVTMTADTSTSTVYMELSSLRSEDTAVYYCARLLRNQPGESYAMDYWGQGTLVTVSS VL: DVVMTQTPLSLSVTPGQPASISCRSSQSLVHSNGYTYLHWYLQKPGQSPQLLIYKVSNRFSGVPDRFSGSGSGTDFTLKISRVEAEDLGVYFCSQSTRVPYTFGQGTKLEIK", "values": [
      {"measurement": "Kd", "setting": "[1]", "value": 325, "unit": "nM"},
      {"measurement": "Soluble luciferase activation at 10 µg/ml Fold over control", "setting": "[2]", "value": 5, "unit": "fold over control"},
      {"measurement": "cell binding (FOB)", "setting": "[3]", "value": 61, "unit": "FOB"}
    ]},
    {"binder": "AL2p-h23 (antibody, human IgG1, V domains shown, humanized, human IgG1; Fab and IgG formats under one id) VH: QVQLVQSGAEVKKPGASLKISCKASGYAFSSSWMNWVRQAPGQGLEWIGRIYPGDGDTNYAQKFQGRATLTADTSTSTAYMELSSLRSEDTAVYYCARLLRNQPGESYAMDYWGQGALVTVSS VL: DVVMTQTPLSLSVTPGQPASISCRSSQSLVHSNGYTYLHWYLQKPGQSPQLLIYKVSNRFSGVPDRFSGSGSGTDFTLKISRVEAEDLGVYFCSQSTRVPYTFGQGTKLEIK", "values": [
      {"measurement": "Kd", "setting": "[1]", "value": 334, "unit": "nM"},
      {"measurement": "Soluble luciferase activation at 10 µg/ml Fold over control", "setting": "[2]", "value": 5.38, "unit": "fold over control"},
      {"measurement": "cell binding (FOB)", "setting": "[3]", "value": 76, "unit": "FOB"}
    ]},
    {"binder": "AL2p-h26 (antibody, human IgG1, V domains shown, humanized, human IgG1; Fab and IgG formats under one id) VH: QVQLVQSGAEVKKPGASVKVSCKASGYAFSSSWMNWVRQAPGQRLEWIGRIYPGDGDTNYAQKFQGRVTITADTSASTAYMELSSLRSEDTAVYYCARLLRNQPGESYAMDYWGQGTLVTVSS VL: DVVMTQTPLSLSVTPGQPASISCRSSQSLVHSNGYTYLHWYLQKPGQSPQLLIYKVSNRFSGVPDRFSGSGSGTDFTLKISRVEAEDLGVYFCSQSTRVPYTFGQGTKLEIK", "values": [
      {"measurement": "Kd", "setting": "[1]", "value": 95.3, "unit": "nM"},
      {"measurement": "Soluble luciferase activation at 10 µg/ml Fold over control", "setting": "[2]", "value": 7.25, "unit": "fold over control"},
      {"measurement": "cell binding (FOB)", "setting": "[3]", "value": 78, "unit": "FOB"}
    ]},
    {"binder": "AL2p-h30 (antibody, human IgG1, V domains shown, humanized, human IgG1; Fab and IgG formats under one id) VH: QVQLVQSGAEVKKPGASVKVSCKASGYAFSSSWMNWVRQAPGQGLEWMGRIYPGDGDTNYAQKFQGRVTMTADTSTSTAYMELSSLRSEDTAVYYCARLLRNQPGESYAMDYWGQGTLVTVSS VL: DVVMTQTPLSLSVTPGQPASISCRSSQSLVHSNGYTYLHWYLQKPGQSPQLLIYKVSNRFSGVPDRFSGSGSGTDFTLKISRVEAEDLGVYFCSQSTRVPYTFGQGTKLEIK", "values": [
      {"measurement": "Kd", "setting": "[1]", "value": 181, "unit": "nM"},
      {"measurement": "Soluble luciferase activation at 10 µg/ml Fold over control", "setting": "[2]", "value": 6.01, "unit": "fold over control"},
      {"measurement": "cell binding (FOB)", "setting": "[3]", "value": 88, "unit": "FOB"}
    ]},
    {"binder": "AL2p-h33 (antibody, human IgG1, V domains shown, humanized, human IgG1; Fab and IgG formats under one id) VH: QVQLVQSGAEVKKPGSSVKVSCKASGYAFSSSWMNWVRQAPGQGLEWIGRIYPGDGDTNYAQKFQGRATLTADTSTTTAYMELSSLRSEDTAVYFCARLLRNQPGESYAMDYWGQGTLVTVSS VL: DVVMTQTPLSLSVTPGQPASISCRSSQSLVHSNGYTYLHWYLQKPGQSPQLLIYKVSNRFSGVPDRFSGSGSGTDFTLKISRVEAEDLGVYFCSQSTRVPYTFGQGTKLEIK", "values": [
      {"measurement": "Kd", "setting": "[1]", "value": 225, "unit": "nM"},
      {"measurement": "Soluble luciferase activation at 10 µg/ml Fold over control", "setting": "[2]", "value": 6.21, "unit": "fold over control"},
      {"measurement": "cell binding (FOB)", "setting": "[3]", "value": 74, "unit": "FOB"}
    ]},
    {"binder": "AL2p-h34 (antibody, human IgG1, V domains shown, humanized, human IgG1; Fab and IgG formats under one id) VH: QVQLVQSGAEVKKPGSSVKVSCKASGYAFSSSWMNWVRQAPGQGLEWIGRIYPGDGDTNYAQKFQGRATITADTSTSTAYMELSSLRSEDTAVYFCARLLRNQPGESYAMDYWGQGTLVTVSS VL: DVVMTQTPLSLSVTPGQPASISCRSSQSLVHSNGYTYLHWYLQKPGQSPQLLIYKVSNRFSGVPDRFSGSGSGTDFTLKISRVEAEDLGVYFCSQSTRVPYTFGQGTKLEIK", "values": [
      {"measurement": "Kd", "setting": "[1]", "value": 142, "unit": "nM"},
      {"measurement": "Soluble luciferase activation at 10 µg/ml Fold over control", "setting": "[2]", "value": 6.92, "unit": "fold over control"},
      {"measurement": "cell binding (FOB)", "setting": "[3]", "value": 84, "unit": "FOB"}
    ]}
  ]
}
